Where no end group is shown, it is not given here. [ ]: non-standard residue; d: D form. I2aa = indolizidin-2-one amino acid (2-oxo-3-amino-azabicyclo[4.3.0]nonane-9-carboxylic acid), a dipeptide surrogate; dOrn = NCCC[C@@H](N)C(=O)O
Columns and labels:
[1] = target: IL-1R/IL-1RacP receptor (cells or tissue whose species is not stated); experiment: cell-based or functional assay
[2] = target: IL-1R/IL-1RacP receptor on porcine cells and vessels (porcine (piglet)); experiment: cell-based or functional assay

Sequence of IL-1R/IL-1RacP receptor (cells or tissue whose species is not stated) (P14778 whole entry, chain 1 of 2): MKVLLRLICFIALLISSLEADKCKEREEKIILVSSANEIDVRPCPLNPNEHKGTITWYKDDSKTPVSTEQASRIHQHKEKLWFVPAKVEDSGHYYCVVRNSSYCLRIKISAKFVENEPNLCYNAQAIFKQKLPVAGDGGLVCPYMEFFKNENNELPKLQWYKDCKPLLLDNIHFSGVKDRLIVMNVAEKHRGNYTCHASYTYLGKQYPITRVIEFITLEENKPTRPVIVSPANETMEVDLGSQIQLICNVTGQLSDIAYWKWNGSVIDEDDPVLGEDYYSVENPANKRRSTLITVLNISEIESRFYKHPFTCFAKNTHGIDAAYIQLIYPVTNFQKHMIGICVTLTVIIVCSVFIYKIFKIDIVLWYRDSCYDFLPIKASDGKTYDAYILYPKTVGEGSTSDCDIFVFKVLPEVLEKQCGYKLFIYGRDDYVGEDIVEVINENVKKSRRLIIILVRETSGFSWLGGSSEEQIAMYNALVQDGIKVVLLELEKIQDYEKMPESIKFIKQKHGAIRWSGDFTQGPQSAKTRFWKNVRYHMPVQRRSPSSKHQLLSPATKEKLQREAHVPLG
Sequence of IL-1R/IL-1RacP receptor (cells or tissue whose species is not stated) (Q9NPH3 whole entry, chain 2 of 2, further chain): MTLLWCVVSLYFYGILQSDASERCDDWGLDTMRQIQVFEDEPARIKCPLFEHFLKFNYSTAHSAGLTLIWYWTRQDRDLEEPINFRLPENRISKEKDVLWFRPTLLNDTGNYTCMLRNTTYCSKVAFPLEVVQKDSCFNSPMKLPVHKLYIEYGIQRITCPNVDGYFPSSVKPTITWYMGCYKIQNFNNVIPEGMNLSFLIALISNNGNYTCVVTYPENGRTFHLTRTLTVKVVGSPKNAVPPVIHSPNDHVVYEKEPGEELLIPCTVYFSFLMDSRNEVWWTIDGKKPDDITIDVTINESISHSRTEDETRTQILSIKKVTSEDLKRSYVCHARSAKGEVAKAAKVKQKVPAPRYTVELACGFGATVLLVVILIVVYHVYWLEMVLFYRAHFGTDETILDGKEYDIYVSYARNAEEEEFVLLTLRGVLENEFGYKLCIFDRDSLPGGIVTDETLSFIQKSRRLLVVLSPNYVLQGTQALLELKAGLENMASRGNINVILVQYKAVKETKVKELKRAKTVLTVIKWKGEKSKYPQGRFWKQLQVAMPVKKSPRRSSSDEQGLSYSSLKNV

Binder	activity (FIG. 26; assay not given) [1] [pM]	IC50, IL-1-induced PGE2 synthesis, endothelial cells [2] [nM]	fold potency against API-101.107, IL-1-induced PGE2 synthesis, endothelial cells [2] [fold]	IC50 (FIG. 26; assay not given) [1] [nM]	efficacy (FIG. 26; assay not given) [1] [%]
[dR][dY][I2aa][dE][dL][dA]-NH2 [API-101.110]	10	0.0002	10		
[dOrn][dY]X[dE][dL][dA] (not fully specified (residue 3); printed as (D-orn)y[R-I2aa]ela) [TTI-101.125]				0.09	100
[dR][dY]X[dE][dL] (not fully specified (residue 3); printed as ry[R-I2aa]el) [TTI-101.124]				2400	100

From patent US20060094663A1
